Data reported in the supplement of paper PMC9116672.
± gives the standard deviation of the averaged measurements or the uncertainty stated by the source.

Columns and labels:
[1] = duplex melting temperature (HRM, EvaGreen); higher = more stable duplex
Protocol: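 Listed DNA strand annealed 1:1 with its complementary strand (95 °C 5 min, 0.1 °C/s to 20 °C). Melted in 1x NNE buffer (500 mM NaCl, 10 mM Na2HPO4, 1 mM EDTA, pH 7.0) with 1x EvaGreen on a LightCycler96 (37 to 97 °C, 0.1 °C/s). Tm is the peak of -dF/dT at the stated total duplex concentration; 4 replicates are averaged. PS oligos are non-stereospecific (Rp/Sp mixtures).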

[2] = duplex formation free energy ΔG50 (Van't Hoff fit of HRM Tm); higher = less stable duplex; details: temperature for dG: 50 °C, NaCl: 500 mM (unadjusted)
Protocol: (§1)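 Duplex of the listed DNA strand with its complement, in 1x NNE buffer (500 mM NaCl, pH 7.0) with 1x EvaGreen. ΔH and ΔS come from a Van't Hoff linear fit of 1/Tm against ln(CT/4) over 1-20 uM, using HRM Tm values.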

[3] = duplex formation enthalpy ΔH (Van't Hoff fit of HRM Tm); higher = less exothermic duplex formation; details: temperature for dG: 50 °C, NaCl: 500 mM (unadjusted)
Protocol: as §1

[4] = duplex formation entropy ΔS (Van't Hoff fit of HRM Tm); higher = smaller entropy loss on duplex formation; details: temperature for dG: 50 °C, NaCl: 500 mM (unadjusted)
Protocol: as §1

[5] = duplex concentration 2.5 µM, backbone: PS-PO (listed strand fully phosphorothioate, complement phosphodiester)
[6] = duplex concentration 2.5 µM, backbone: PS-PS (both strands fully phosphorothioate)
[7] = duplex concentration 5 µM, backbone: PO-PO (both strands phosphodiester DNA)
[8] = duplex concentration 5 µM, backbone: PS-PO (listed strand fully phosphorothioate, complement phosphodiester)
[9] = duplex concentration 5 µM, backbone: PS-PS (both strands fully phosphorothioate)
[10] = duplex concentration 7.5 µM, backbone: PO-PO (both strands phosphodiester DNA)
[11] = duplex concentration 7.5 µM, backbone: PS-PO (listed strand fully phosphorothioate, complement phosphodiester)
[12] = duplex concentration 7.5 µM, backbone: PS-PS (both strands fully phosphorothioate)
[13] = duplex concentration 10 µM, backbone: PO-PO (both strands phosphodiester DNA)
[14] = duplex concentration 10 µM, backbone: PS-PO (listed strand fully phosphorothioate, complement phosphodiester)
[15] = duplex concentration 10 µM, backbone: PS-PS (both strands fully phosphorothioate)
[16] = duplex concentration 15 µM, backbone: PO-PO (both strands phosphodiester DNA)
[17] = duplex concentration 15 µM, backbone: PS-PO (listed strand fully phosphorothioate, complement phosphodiester)
[18] = duplex concentration 15 µM, backbone: PS-PS (both strands fully phosphorothioate)
[19] = duplex concentration 20 µM, backbone: PO-PO (both strands phosphodiester DNA)
[20] = duplex concentration 20 µM, backbone: PS-PO (listed strand fully phosphorothioate, complement phosphodiester)
[21] = duplex concentration 20 µM, backbone: PS-PS (both strands fully phosphorothioate)
[22] = backbone: PO-PO (both strands phosphodiester DNA)
[23] = backbone: PS-PO (listed strand fully phosphorothioate, complement phosphodiester)
[24] = backbone: PS-PS (both strands fully phosphorothioate)
[25] = duplex concentration 1 µM, backbone: PO-PO (both strands phosphodiester DNA)
[26] = duplex concentration 1 µM, backbone: PS-PS (both strands fully phosphorothioate)
[27] = duplex concentration 2.5 µM, backbone: PO-PO (both strands phosphodiester DNA)

Sequence | duplex melting temperature [1, 5] [°C] | duplex melting temperature [1, 6] [°C] | duplex melting temperature [1, 7] [°C] | duplex melting temperature [1, 8] [°C] | duplex melting temperature [1, 9] [°C] | duplex melting temperature [1, 10] [°C] | duplex melting temperature [1, 11] [°C] | duplex melting temperature [1, 12] [°C] | duplex melting temperature [1, 13] [°C] | duplex melting temperature [1, 14] [°C] | duplex melting temperature [1, 15] [°C] | duplex melting temperature [1, 16] [°C] | duplex melting temperature [1, 17] [°C] | duplex melting temperature [1, 18] [°C] | duplex melting temperature [1, 19] [°C] | duplex melting temperature [1, 20] [°C] | duplex melting temperature [1, 21] [°C] | duplex formation free energy ΔG50 [2, 22] [kcal/mol] | duplex formation free energy ΔG50 [2, 23] [kcal/mol] | duplex formation free energy ΔG50 [2, 24] [kcal/mol] | duplex formation enthalpy ΔH [3, 22] [kcal/mol] | duplex formation enthalpy ΔH [3, 23] [kcal/mol] | duplex formation enthalpy ΔH [3, 24] [kcal/mol] | duplex formation entropy ΔS [4, 22] [cal/mol/K] | duplex formation entropy ΔS [4, 23] [cal/mol/K] | duplex formation entropy ΔS [4, 24] [cal/mol/K] | duplex melting temperature [1, 25] [°C] | duplex melting temperature [1, 26] [°C] | duplex melting temperature [1, 27] [°C] | duplex melting temperature ([1]; duplex concentration 1 µM, backbone: PS-PO (listed strand fully phosphorothioate, complement phosphodiester)) [°C]
ACGGGTCGTTCCGTG | 60.97 ± 0.26 | 56.07 ± 0.25 | 71.45 ± 0.49 | 63.292 ± 0.043 | 58.82 ± 0.085 | 73.32 ± 0.23 | 64.64 ± 0.1 | 60 ± 0.17 | 74.34 ± 0.26 | 65.62 ± 0.087 | 60.71 ± 0.21 | 75.77 ± 0.15 | 67.006 ± 0.054 | 61.81 ± 0.19 | 76.55 ± 0.13 | 68.03 ± 0.2 | 62.74 ± 0.27 | -13.1 ± 0.37 | -11.37 ± 0.043 | -10.5 ± 0.13 | -68.9 ± 5.2 | -67 ± 0.95 | -70.7 ± 4.1 | -173 ± 15 | -172 ± 2.8 | -186 ± 12 |  |  |  | 
ACTCGCTCTACCTTAAT | 55.24 ± 0.45 | 50.2 ± 0.22 | 65.23 ± 0.53 | 57.69 ± 0.21 | 52.44 ± 0.085 | 66.57 ± 0.5 | 59.03 ± 0.074 | 53.72 ± 0.14 | 67.63 ± 0.18 | 59.946 ± 0.043 | 54.68 ± 0.21 | 69.17 ± 0.14 | 61.16 ± 0.2 | 55.75 ± 0.19 | 70.4 ± 0.34 | 62.06 ± 0.28 | 56.8 ± 0.2 | -11.8 ± 0.16 | -10.27 ± 0.06 | -9.165 ± 0.027 | -68.3 ± 3.3 | -67 ± 2.1 | -63.1 ± 2 | -175 ± 9.7 | -176 ± 6.4 | -167 ± 6.3 | 60.43 ± 0.52 | 46.7 ± 0.53 | 62.88 ± 0.38 | 
ACTGTATCGCCCTA |  | 47.26 ± 0.29 | 65.3 ± 0.12 | 57.4 ± 0.95 | 50.2 ± 0.33 | 66.7 ± 0.24 | 60.1 ± 0.84 | 51.8 ± 0.45 | 68.35 ± 0.2 | 61.56 ± 0.48 | 54.55 ± 0.45 | 69.55 ± 0.22 | 62.93 ± 0.27 | 57.15 ± 0.42 | 70.51 ± 0.2 | 63.73 ± 0.26 | 59.2 ± 0.59 | -12 ± 0.31 | -10.2 ± 0.24 | -8.829 ± 0.042 | -70.4 ± 6 | -56.7 ± 6.8 | -40.3 ± 2.8 | -181 ± 18 | -144 ± 20 | -97.5 ± 8.7 |  | 43.6 ± 0.65 | 64.04 ± 0.18 | 
AGACATCCCATACGAGCATCCA | 69.1 ± 0.53 | 60.9 ± 0.71 | 77.03 ± 0.46 | 70.2 ± 0.62 | 62.6 ± 0.4 | 78.03 ± 0.27 | 71.19 ± 0.51 | 63.56 ± 0.19 | 79.049 ± 0.057 | 71.87 ± 0.23 | 64.391 ± 0.055 | 79.985 ± 0.077 | 72.68 ± 0.15 | 65.3 ± 0.086 | 80.728 ± 0.069 | 73.314 ± 0.051 | 65.89 ± 0.11 | -17.5 ± 0.61 | -16.1 ± 0.3 | -12.13 ± 0.08 | -112 ± 7.7 | -124 ± 4.9 | -90.8 ± 2 | -292 ± 22 | -333 ± 14 | -243 ± 6 | 74.67 ± 0.5 | 58.4 ± 0.91 | 75.64 ± 0.58 | 67.6 ± 0.69
AGAGCGCCCTGCTGCC | 69.05 ± 0.38 | 64.26 ± 0.22 | 78.81 ± 0.32 | 71.34 ± 0.29 | 66.24 ± 0.22 | 79.83 ± 0.11 | 72.67 ± 0.34 | 67.29 ± 0.24 | 80.68 ± 0.17 | 73.6 ± 0.23 | 68.17 ± 0.076 | 81.9 ± 0.28 | 74.83 ± 0.1 | 69.33 ± 0.14 | 82.78 ± 0.25 | 75.7 ± 0.12 | 70.195 ± 0.058 | -15.8 ± 0.28 | -13.3 ± 0.17 | -12.59 ± 0.085 | -86.9 ± 3.2 | -74.4 ± 2.6 | -80.8 ± 1.7 | -220 ± 9 | -189 ± 7.4 | -211 ± 5 |  | 61.69 ± 0.3 | 76.76 ± 0.43 | 
